Measured values published in US20260242839A1, “GLYCOSIDE PRODUCT BIOSYNTHESIS AND RECOVERY” (Manus Bio Inc., priority 2023, published 2026).
Numbering of substitutions follows the chain as printed. Names and notes keep the numbering of the source.

B1: A143W: mutation to UGT enzyme of SEQ ID NO: 14 (protein)
chain: MATKNSSGMSLAERFWLTLSRSSLVVGRSCVEFEPETVPLLSTLRGKPITFLGLMPPLHEGRREDGEDATVRWLDAQPAKSVVYVALGSEVPLGVEKVHELALGLELAGTRFLWALRKPTGVSDADLLPAGFEERTRGRGVVWTRWVPQMSILAHAAVGAFLTHCGWNSTIEGLMFGHPLIMLPITGDQGPNARLIEAKNAGLQVARNDGDGSFDREGVAAAIRAVAVEEESSKVFQAKAKKLQEIVADMACHERYIDGFIQQLRSYKDDSGYSSSYAAAAGMHVVICPWLAFGHLLPCLDLAQRLASRGHRVSFVSTPRNISRLPPVRPALAPLVAFVALPLPRVEGLPDGAESTNDVPHDRPDMVELHRRAFDGLAAPFSEFLGTACADWVIVDSFHHWAAAAALEHKVPCAMMLLGSAEMIASIADERLEHAETESPAAAGQGRPAAAPTFEVARMKLIR
B2: C252R: mutation to UGT enzyme of SEQ ID NO: 14 (protein)
chain: B1 chain with W143A, C252R
B3: M250K_A251E_C252L: mutation to UGT enzyme of SEQ ID NO: 14 (protein)
chain: B1 chain with W143A, M250K, A251E, C252L
B4: R45F: mutation to UGT enzyme of SEQ ID NO: 14 (protein)
chain: B1 chain with R45F, W143A
B5: Q244K: mutation to UGT enzyme of SEQ ID NO: 14 (protein)
chain: B1 chain with W143A, Q244K
B6: T186I: mutation to UGT enzyme of SEQ ID NO: 14 (protein)
chain: B1 chain with W143A, T186I
B7: L11I: mutation to UGT enzyme of SEQ ID NO: 14 (protein)
chain: B1 chain with L11I, W143A
B8: V38F: mutation to UGT enzyme of SEQ ID NO: 14 (protein)
chain: B1 chain with V38F, W143A
B9: T453F: mutation to UGT enzyme of SEQ ID NO: 14 (protein)
chain: B1 chain with W143A, T453F
B10: T37S: mutation to UGT enzyme of SEQ ID NO: 14 (protein)
chain: B1 chain with T37S, W143A
B11: I427F: mutation to UGT enzyme of SEQ ID NO: 14 (protein)
chain: B1 chain with W143A, I427F
B12: V26I: mutation to UGT enzyme of SEQ ID NO: 14 (protein)
chain: B1 chain with V26I, W143A

Tested on: steviol glycoside
Assay: steviol glycoside bioconversion by E. coli expressing individual mutations of UGT SEQ ID NO: 14
Format: cell-based
Settings: fold improvement of % conversion vs parent UGT SEQ ID NO: 14; stevia leaf extract and glucose fed; 37° C., 48 hr
Procedure: Fold improvement is with respect to % steviol glycoside conversion of the parent UGT enzyme of SEQ ID NO: 14. The UGT enzyme of SEQ ID NO: 15 has the following mutations from SEQ ID NO: 14: ins_A2_T3_RR, H59P, A238E, L417F. Stevia leaf extract and glucose were fed to the bioconversion strains. Bioconversion took place at 37° C. for 48 hr. Data were quantified by reverse phase LC DAD to quantify conversion of steviol glycosides.
Fold improvement (FI) is with respect to % steviol glycoside conversion.

Row | Molecule | FI %Stevioside→rebE | FI %rebA→rebD
1 | B1 | 1.3 | 1.3
2 | B2 | 1.25 | 1.19
3 | B3 | 1.40 | 1.23
4 | B4 | 1.35 | 1.18
5 | B5 | 1.25 | 1.16
6 | B6 | 1.48 | 1.24
7 | B7 | 1.39 | 1.16
8 | B8 | 1.33 | 1.19
9 | B9 | 1.32 | 1.20
10 | B10 | 1.35 | 1.17
11 | B11 | 1.15 | 1.24
12 | B12 | 1.18 | 1.16
